Target: T1, Fc control (Fc fusion partner alone) (human, UniProt P01857-1 100-330 = IgG part, limits assumed)
T1 construct: domain: Fc; Control protein, 'prepared as described previously'
Assay: in vivo homing; anti-human Fc immunofluorescence on frozen sections of urethane-induced mouse lung tumors, 2 h after i.p. injection
Description: First, we tested if systemically administered ephrin-A1-Fc could home to urethane-induced lung tumors that overexpress EphA2. Lung tumors were induced in wild type mice with urethane. Twenty-five weeks later, mice were injected i.p. with 5 μg/g ephrin-A1-Fc. Fc fusion partner alone was used as control. Two hours after injection, mice were sacrificed, and tumors were dissected out; frozen sections were subject to immunofluorescence staining to detect whether there was a selective homing of ephrin-A1-Fc to tumor tissues relative to control Fc. […] Both FITC-conjugated donkey anti-Fc and Texas-Red-conjugated goat anti-human Fc antibodies yielded similar patterns of selective tumor homing.

B1: EphA2 kinase of mouse (urethane-induced lung tumors, primary keratinocytes, MEF, mouse lung tumor cell lines) (receptor, UniProt Q03145 26-977, looked up)
chain: KEVVLLDFAAMKGELGWLTHPYGKGWDLMQNIMDDMPIYMYSVCNVVSGDQDNWLRTNWVYREEAERIFIELKFTVRDCNSFPGGASSCKETFNLYYAESDVDYGTNFQKRQFTKIDTIAPDEITVSSDFEARNVKLNVEERMVGPLTRKGFYLAFQDIGACVALLSVRVYYKKCPEMLQSLARFPETIAVAVSDTQPLATVAGTCVDHAVVPYGGEGPLMHCTVDGEWLVPIGQCLCQEGYEKVEDACRACSPGFFKSEASESPCLECPEHTLPSTEGATSCQCEEGYFRAPEDPLSMSCTRPPSAPNYLTAIGMGAKVELRWTAPKDTGGRQDIVYSVTCEQCWPESGECGPCEASVRYSEPPHALTRTSVTVSDLEPHMNYTFAVEARNGVSGLVTSRSFRTASVSINQTEPPKVRLEDRSTTSLSVTWSIPVSQQSRVWKYEVTYRKKGDANSYNVRRTEGFSVTLDDLAPDTTYLVQVQALTQEGQGAGSKVHEFQTLSTEGSANMAVIGGVAVGVVLLLVLAGVGLFIHRRRRNLRARQSSEDVRFSKSEQLKPLKTYVDPHTYEDPNQAVLKFTTEIHPSCVARQKVIGAGEFGEVYKGTLKASSGKKEIPVAIKTLKAGYTEKQRVDFLSEASIMGQFSHHNIIRLEGVVSKYKPMMIITEYMENGALDKFLREKDGEFSVLQLVGMLRGIASGMKYLANMNYVHRDLAARNILVNSNLVCKVSDFGLSRVLEDDPEATYTTSGGKIPIRWTAPEAISYRKFTSASDVWSYGIVMWEVMTYGERPYWELSNHEVMKAINDGFRLPTPMDCPSAIYQLMMQCWQQERSRRPKFADIVSILDKLIRAPDSLKTLADFDPRVSIRLPSTSGSEGVPFRTVSEWLESIKMQQYTEHFMVAGYTAIEKVVQMSNEDIKRIGVRLPGHQKRIAYSLLGLKDQVNTVGIPI
notes: whole, on cells
binding result: no binding (tested: 2.5 µg/ml Fc control (i.p.))
